Reference: article PMC6149797, “Rational Engineering of a Flavoprotein Oxidase for Improved Direct Oxidation of Alcohols to Carboxylic Acids” (Molecules : A Journal of Synthetic Chemistry and Natural …, 2017)

B1: 5-(hydroxymethyl)furfural oxidase (HMFO) (Methylovorus sp. MP688) (protein)
chain: MTDTIFDYVIVGGGTAGSVLANRLSARPENRVLLIEAGIDTPENNIPPEIHDGLRPWLPRLSGDKFFWPNLTIHRAAEHPGITREPQFYEQGRLLGGGSSVNMVVSNRGLPRDYDEWQALGADGWDWQGVLPYFIKTERDADYGDDPLHGNAGPIPIGRVDSRHWSDFTVAATQALEAAGLPNIHDQNARFDDGYFPPAFTLKGEERFSAARGYLDASVRVRPNLSLWTESRVLKLLTTGNAITGVSVLRGRETLQVQAREVILTAGALQSPAILLRTGIGPAADLHALGIPVLADRPGVGRNLWEHSSIGVVAPLTEQARADASTGKAGSRHQLGIRASSGVDPATPSDLFLHIGADPVSGLASAVFWVNKPSSTGWLKLKDADPFSYPDVDFNLLSDPRDLGRLKAGLRLITHYFAAPSLAKYGLALALSRFAAPQPGGPLLNDLLQDEAALERYLRTNVGGVWHASGTARIGRADDSQAVVDKAGRVYGVTGLRVADASIMPTVPTANTNLPTLMLAEKIADAILTQA
notes: N-terminal His-SUMO fusion (Champion pET SUMO), tag not cleaved; E. coli BL21(DE3)

Assays:
[1] = tested on: T1, O=Cc1ccc([N+](=O)[O-])cc1; experiment: coupled HRP H2O2 assay, Michaelis-Menten; assay type: biochemical, Methylovorus sp. MP688; details: O2 (co-substrate), 100 mM sodium phosphate pH 7.0, 30 °C, aldehyde oxidised via its gem-diol hydrate
T1 construct: N-terminal His-SUMO fusion (Champion pET SUMO), tag not cleaved; E. coli BL21(DE3)
From the text: (§1) coupled HRP H2O2 assay, Michaelis-Menten on 5-(hydroxymethyl)furfural oxidase (HMFO)

[2] = tested on: T2, O=[N+]([O-])c1ccc(CO)cc1; experiment: coupled HRP H2O2 assay, Michaelis-Menten; assay type: biochemical, Methylovorus sp. MP688; details: O2 (co-substrate), 100 mM sodium phosphate pH 7.0, 30 °C
T2 construct: N-terminal His-SUMO fusion (Champion pET SUMO), tag not cleaved; E. coli BL21(DE3)
From the text: as §1

[3] = substrate: O=[N+]([O-])c1ccc(CO)cc1; experiment: purified protein; details: O2 (co-substrate), 100 mM sodium phosphate pH 7.0, 30 °C
[4] = substrate: O=Cc1ccc([N+](=O)[O-])cc1; experiment: coupled HRP H2O2 assay, Michaelis-Menten; assay type: biochemical, Methylovorus sp. MP688; details: O2 (co-substrate), 100 mM sodium phosphate pH 7.0, 30 °C, aldehyde oxidised via its gem-diol hydrate
From the text: as §1

| Molecule | Km [1] [µM] | kcat [1] [s⁻¹] | kcat/Km [1] [M⁻¹ s⁻¹] | Km [2] [µM] | kcat [2] [s⁻¹] | kcat/Km [2] [M⁻¹ s⁻¹] | Km [3] [µM] | kcat [3] [s⁻¹] | kcat/Km [3] [M⁻¹ s⁻¹] | Km [4] [µM] | kcat [4] [s⁻¹] | kcat/Km [4] [M⁻¹ s⁻¹] |
| --- | --- | --- | --- | --- | --- | --- | --- | --- | --- | --- | --- | --- |
| 5-(hydroxymethyl)furfural oxidase (HMFO) (Methylovorus sp. MP688; W466H) | 160 | 0.003 | 20 | 400 | 0.02 | 50 |  |  |  |  |  |  |
| 5-(hydroxymethyl)furfural oxidase (HMFO) (Methylovorus sp. MP688; V465T) |  |  |  | 30 | 1.7 | 57000 |  |  |  |  |  |  |
| B1 |  |  |  |  |  |  | 260 | 7.4 | 28000 | 310 | 0.3 | 970 |
